From patent US20160115200A1 (published 2016)
Square brackets hold non-standard residues; d marks the D form. Ends that are not written are not given here.

What was measured:
[1] = molecular target: T1, His-JNK3 (ref 14-501, Upstate) (UniProt P53779 1-422); assay: kinase inhibition
[2] = molecular target: T2, His-JNK1 (ref 14-327, Upstate) (UniProt P45983 1-384); assay: kinase inhibition
[3] = molecular target: T1, His-JNK3 (ref 14-501, Upstate); assay: JNK inhibition assay
[4] = molecular target: T2, His-JNK1 (ref 14-327, Upstate); assay: JNK inhibition assay

T1 sequence (P53779 other isoform, or with tags, fused parts or gaps): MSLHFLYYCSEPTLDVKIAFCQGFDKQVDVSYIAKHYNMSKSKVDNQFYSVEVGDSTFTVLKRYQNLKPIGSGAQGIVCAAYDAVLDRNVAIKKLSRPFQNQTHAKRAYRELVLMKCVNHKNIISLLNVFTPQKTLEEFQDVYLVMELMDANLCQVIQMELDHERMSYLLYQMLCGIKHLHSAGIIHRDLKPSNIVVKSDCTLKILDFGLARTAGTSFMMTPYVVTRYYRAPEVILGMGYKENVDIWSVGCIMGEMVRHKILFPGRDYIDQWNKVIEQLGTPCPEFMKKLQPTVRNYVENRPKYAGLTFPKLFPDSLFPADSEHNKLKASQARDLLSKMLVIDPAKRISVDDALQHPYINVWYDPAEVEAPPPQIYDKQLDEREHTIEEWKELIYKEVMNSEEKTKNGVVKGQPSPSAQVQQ
T2 sequence (P45983 other isoform, or with tags, fused parts or gaps): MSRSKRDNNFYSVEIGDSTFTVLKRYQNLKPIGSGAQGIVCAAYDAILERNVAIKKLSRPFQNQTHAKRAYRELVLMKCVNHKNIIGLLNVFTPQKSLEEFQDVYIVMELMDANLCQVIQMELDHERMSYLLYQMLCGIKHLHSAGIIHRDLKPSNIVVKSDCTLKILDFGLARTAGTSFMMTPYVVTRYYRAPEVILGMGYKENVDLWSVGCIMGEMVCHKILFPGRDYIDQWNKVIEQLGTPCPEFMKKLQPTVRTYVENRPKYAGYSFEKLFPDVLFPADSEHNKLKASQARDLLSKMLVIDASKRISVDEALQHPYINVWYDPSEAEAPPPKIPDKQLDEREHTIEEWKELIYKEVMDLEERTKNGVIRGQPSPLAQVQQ

Binder | IC50 [1] [nM] | IC50 [2] [nM] | IC50 [3] [nM] | IC50 [4] [nM]
GRKKRRQRRRPTTLNLFPQVPRSQD [SEQ ID NO: 195] | 4.92 | 10.8 | – | –
[dR]KKR[dR]QR[dR]KRP[dA]TLNL[dF] [SEQ ID NO: 184] | 129 | 2430 | – | –
[dR]KKR[dR]QRR[dR]GKRKAL[dR]L[dF] [SEQ ID NO: 189] | 128 | 22300 | – | –
[dR]KKR[dR]QR[dR]RPTDL[dR]L[dW] [SEQ ID NO: 181] | 47.6 | 294 | – | –
[dR]KKR[dR]QRR[dR]RP[dK]RP[dK]TLNL[dF] [SEQ ID NO: 187] | 25.4 | 594 | – | –
RPKRPTTL[dR]LF [SEQ ID NO: 6] | – | – | 120 | 90.5
[dR]KKR[dR]QRR[dR]RP[dK]RPTTLNL[dW] [SEQ ID NO: 176] | 22.4 | 131 | – | –
[dR]KKR[dR]QRR[dR]RPTDL[dR]L[dW] [SEQ ID NO: 180] | 47 | 265 | – | –
GRKKRRQRRRPPKRPTTLNLFPQVPRSQD [SEQ ID NO: 194] | 2.59 | 14 | – | –
[dR]KKR[dR]QRR[dR]RKAL[dR]L[dF] [SEQ ID NO: 190] | 159 | 8970 | – | –
RKKRRQRRRRPKRPATLNLF [SEQ ID NO: 172] | 102 | 722 | – | –
[dR]KKR[dR]QRR[dR]RP[dK]RPTDLNL[dF] [SEQ ID NO: 177] | 45.4 | 355 | – | –
[dR]KKR[dR]QR[dR]RP[dA]TLNL[dF] [SEQ ID NO: 183] | 199 | 2590 | – | –
[dR]KKR[dR]QRR[dR]RP[dK]RP[dS]TLNL[dF] [SEQ ID NO: 185] | 35.5 | 766 | – | –
[dR]KKR[dR]QRR[dR]RPTTLNL[dF] [SEQ ID NO: 174] | 63.1 | 334 | – | –
[dR]KKR[dR]QRR[dR]RP[dK]AA[dA]AANA[dF] [SEQ ID NO: 200] | 3820 | – | – | –
[dR]KKR[dR]QR[dR]RPTTL[dR]L[dW] [SEQ ID NO: 179] | 45.7 | 249 | – | –
RKKRRQRRR [SEQ ID NO: 46] | 8130 | – | – | –
[dR]KKR[dR]QRR[dR]GKRKALKL[dF] [SEQ ID NO: 188] | 36.1 | 1420 | – | –
[dR]KKR[dR]QRR[dR]RPTTL[dR]L[dW] [SEQ ID NO: 178] | 30.4 | 329 | – | –
[dR]KKR[dR]QRR[dR]RP[dA]TLNL[dF] [SEQ ID NO: 182] | 59.4 | 1680 | – | –
[dR]KKR[dR]QRR[dR]RP[dK]RP[dQ]TLNL[dF] [SEQ ID NO: 186] | 44.2 | 1020 | – | –
[dR]KKR[dR]QR[dR]RPTTLNL[dF] [SEQ ID NO: 175] | 60.6 | 185 | – | –
[dR]KKR[dR]QRR[dR]RP[dK]RPTTL[dR]L[dF] [SEQ ID NO: 173] | 16.8 | 88.4 | – | –
